Measured values reported in publication PMC5177622, “Multivalent Histone and DNA Engagement by a PHD/BRD/PWWP Triple Reader Cassette Recruits ZMYND8 to K14ac-Rich Chromatin” (Cell Reports, 2016).
Blank lines part the entries; values can stand above or below the substance they belong to.

Assays:
[1] = biological target: ZMYND8 PHD/BRD/PWWP triple reader cassette (Q83-S406), wild type (human); assay: ITC; ITC200; peptides titrated into a solution of ZMYND8; single-site binding model; n = 3
histone H3 K9ac (m36) = assay: anti-FLAG immunoprecipitation and western blot, quantified; settings: HEK293 cells transiently transfected; three biological replicates; anti-H3K9ac blot; parent: est. 1.0; read off a plot
histone H3 K36me2 (m36) = assay: as above; settings: HEK293 cells transiently transfected; three biological replicates; anti-H3K36me2 blot; parent: est. 1.0; read off a plot
histone H3 K36me3 (m36) = assay: as above; settings: HEK293 cells transiently transfected; three biological replicates; anti-H3K36me3 blot; parent: est. 1.0; read off a plot
histone H3 K36me (m36) = assay: as above; settings: HEK293 cells transiently transfected; three biological replicates; anti-H3K36me blot; parent: est. 1.0; read off a plot

Kd [1]: 6.8 µM
Substance: Histone H3.3 40-aa recombinant peptide, K14ac (from UniProt P84243 2-41)

ratio to parent (histone H3 K9ac (m36)): 0.19
Substance: 3×FLAG-ZMYND8 full length, wild type (from UniProt Q9ULU4-13) N228F

ratio to parent (histone H3 K36me2 (m36)): 0.08 | ratio to parent (histone H3 K36me3 (m36)): 0.39 | ratio to parent (histone H3 K36me (m36)): 0.28
Substance: 3×FLAG-ZMYND8 full length, wild type (from UniProt Q9ULU4-13) F288A; W291A
